This passage reports Protease activity upon dilution (%) immediately after preparation and Remaining activity (%) immediately after preparation results from patent US20140357543A1.

T1: alcalase (trade name "Alcalase 2.5L", Novozymes) (UniProt P00780)
T1 sequence (looked up): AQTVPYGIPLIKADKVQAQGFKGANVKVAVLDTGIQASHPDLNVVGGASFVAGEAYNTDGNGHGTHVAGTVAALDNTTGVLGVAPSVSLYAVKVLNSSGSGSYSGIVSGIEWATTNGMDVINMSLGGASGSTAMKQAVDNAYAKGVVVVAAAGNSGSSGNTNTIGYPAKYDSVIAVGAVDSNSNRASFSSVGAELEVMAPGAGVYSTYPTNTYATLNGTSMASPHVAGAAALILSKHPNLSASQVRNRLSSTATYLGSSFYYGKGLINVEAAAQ

B1: proteinaceous protease inhibitor of SEQ ID NO:2 (protein)
chain: TDTGDHHNQKTDWPELVGKSVEEAKKVILQDKSEAQIVVLPVGTIVTMEYRIDRVRLFVDSLDKIAQVPRVG
B2: proteinaceous protease inhibitor of SEQ ID NO:9 (protein)
chain: TDTGDHHNQKTEWPELVGKSVEEAKKVILQDKSEAQIVVLPVGTIVTMEARIDRVRLFVDSLDKIAQVPRVG
B3: proteinaceous protease inhibitor of SEQ ID NO:17 (protein)
chain: TDTGDHHNQKTEWPELVGKSVEEAKKVILQDKSEAQIVVLPVGTIVTMEYRIERVRLFVDSLDKIAQVPRVG
B4: proteinaceous protease inhibitor of SEQ ID NO:10 (protein)
chain: TDTGDHHNQKTEWPELVGKSVEEAKKVILQDKSEAQIVVLPVGTIVTMELRIDRVRLFVDSLDKIAQVPRVG
B5: proteinaceous protease inhibitor of SEQ ID NO:15 (protein)
chain: TDTGDHHNQKTEWPELVGKSVEEAKKVILQDKSEAQIVVLPVGTIVTMEYRADRVRLFVDSLDKIAQVPRVG
B6: proteinaceous protease inhibitor of SEQ ID NO:11 (protein)
chain: TDTGDHHNQKTEWPELVGKSVEEAKKVILQDKSEAQIVVLPVGTIVTMEFRIDRVRLFVDSLDKIAQVPRVG
B7: proteinaceous protease inhibitor of SEQ ID NO:8 (protein)
chain: TDTGDHHNQKTEWPELVGKSVEEAKKVILQDKSEAQIVVLPVGTIVTGEYRIDRVRLFVDSLDKIAQVPRVG
B8: proteinaceous protease inhibitor of SEQ ID NO:13 (protein)
chain: TDTGDHHNQKTEWPELVGKSVEEAKKVILQDKSEAQIVVLPVGTIVTMEYKIDRVRLFVDSLDKIAQVPRVG
B9: proteinaceous protease inhibitor of SEQ ID NO:12 (protein)
chain: TDTGDHHNQKTEWPELVGKSVEEAKKVILQDKSEAQIVVLPVGTIVTMEYAIDRVRLFVDSLDKIAQVPRVG
B10: proteinaceous protease inhibitor of SEQ ID NO:16 (protein)
chain: TDTGDHHNQKTEWPELVGKSVEEAKKVILQDKSEAQIVVLPVGTIVTMEYRVDRVRLFVDSLDKIAQVPRVG
B11: proteinaceous protease inhibitor of SEQ ID NO:14 (protein)
chain: TDTGDHHNQKTEWPELVGKSVEEAKKVILQDKSEAQIVVLPVGTIVTMEYHIDRVRLFVDSLDKIAQVPRVG
B12: proteinaceous protease inhibitor of SEQ ID NO:7 (protein)
chain: TDTGDHHNQKTEWPELVGKSVEEAKKVILQDKSEAQIVVLPVGTIVTAEYRIDRVRLFVDSLDKIAQVPRVG

The target of the test is T1, alcalase (trade name "Alcalase 2.5L", Novozymes). The test can be described thus: cell-based or functional assay.
With B1, the Protease activity upon dilution (%) immediately after preparation amounted to 100% and the Remaining activity (%) immediately after preparation worked out at 10%.

B2 returned a Protease activity upon dilution (%) immediately after preparation of 85% and a Remaining activity (%) immediately after preparation of 18%.

Turning to B3, the Protease activity upon dilution (%) immediately after preparation is 95% and the Remaining activity (%) immediately after preparation is 9%.

Molecule B4 returned a Protease activity upon dilution (%) immediately after preparation of 90% and a Remaining activity (%) immediately after preparation of 9%.

For the molecule B5, the Protease activity upon dilution (%) immediately after preparation was found to be 80% and the Remaining activity (%) immediately after preparation was found to be 3%.

For the molecule B6, the Protease activity upon dilution (%) immediately after preparation worked out at 90% and the Remaining activity (%) immediately after preparation turned out to be 8%.

B7 yielded a Protease activity upon dilution (%) immediately after preparation of 85% and a Remaining activity (%) immediately after preparation of 23%.

As to B8, the Protease activity upon dilution (%) immediately after preparation is 25% and the Remaining activity (%) immediately after preparation amounted to 4%.

In the case of B9, the Protease activity upon dilution (%) immediately after preparation worked out at 20% and the Remaining activity (%) immediately after preparation worked out at 2%.

In turn, B10 came in with a Protease activity upon dilution (%) immediately after preparation of 95% and a Remaining activity (%) immediately after preparation of 9%.

In turn, B11 returned a Protease activity upon dilution (%) immediately after preparation of 85% and a Remaining activity (%) immediately after preparation of 5%.

Take B12: the Protease activity upon dilution (%) immediately after preparation is 86% and the Remaining activity (%) immediately after preparation came to 25%.
